Our source for the NIM TDI kinact/Ki, OATP1B13 IC50 and MRP2 IC50 values is patent US20140134132A1.

Assay in all cases: cell-based or functional assay
The target in one experiment is CYP3A4 (UniProt P08684).
Experiment [1] has as its target organic anion transporting polypeptide 1B1 (UniProt Q9Y6L6).
Experiment [2] addresses multidrug resistance associated protein 2 (human) (UniProt Q92887).

CYP3A4, sequence (P08684 whole entry): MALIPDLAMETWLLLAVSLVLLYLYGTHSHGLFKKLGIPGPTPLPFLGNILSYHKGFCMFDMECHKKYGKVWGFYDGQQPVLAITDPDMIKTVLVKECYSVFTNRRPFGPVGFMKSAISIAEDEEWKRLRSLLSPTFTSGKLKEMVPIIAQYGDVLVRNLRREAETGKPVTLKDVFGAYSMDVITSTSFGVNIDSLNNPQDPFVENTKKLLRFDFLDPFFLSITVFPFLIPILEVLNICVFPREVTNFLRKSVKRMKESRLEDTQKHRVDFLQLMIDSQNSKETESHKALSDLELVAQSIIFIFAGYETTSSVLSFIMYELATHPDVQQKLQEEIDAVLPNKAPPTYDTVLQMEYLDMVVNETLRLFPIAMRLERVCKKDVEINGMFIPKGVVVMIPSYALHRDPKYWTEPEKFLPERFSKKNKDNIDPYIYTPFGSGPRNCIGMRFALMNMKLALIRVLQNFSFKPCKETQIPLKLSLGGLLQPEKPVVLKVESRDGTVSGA
organic anion transporting polypeptide 1B1, sequence (Q9Y6L6 whole entry): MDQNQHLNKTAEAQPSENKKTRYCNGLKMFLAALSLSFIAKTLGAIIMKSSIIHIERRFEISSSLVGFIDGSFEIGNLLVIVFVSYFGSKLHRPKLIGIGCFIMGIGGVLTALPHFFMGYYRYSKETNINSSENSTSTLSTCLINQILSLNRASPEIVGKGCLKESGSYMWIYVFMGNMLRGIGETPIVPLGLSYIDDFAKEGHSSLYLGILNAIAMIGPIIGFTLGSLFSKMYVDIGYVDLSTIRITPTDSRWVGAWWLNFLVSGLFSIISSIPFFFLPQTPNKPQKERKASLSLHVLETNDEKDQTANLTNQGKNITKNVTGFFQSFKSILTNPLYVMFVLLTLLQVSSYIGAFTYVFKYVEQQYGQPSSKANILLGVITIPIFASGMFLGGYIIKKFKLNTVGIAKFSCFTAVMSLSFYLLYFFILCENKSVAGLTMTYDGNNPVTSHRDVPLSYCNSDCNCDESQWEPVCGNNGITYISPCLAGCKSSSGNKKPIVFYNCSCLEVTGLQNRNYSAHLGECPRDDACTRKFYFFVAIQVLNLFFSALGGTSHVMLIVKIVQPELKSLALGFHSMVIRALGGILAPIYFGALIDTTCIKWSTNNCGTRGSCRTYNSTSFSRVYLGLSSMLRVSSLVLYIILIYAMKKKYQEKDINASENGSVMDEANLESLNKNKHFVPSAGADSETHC
multidrug resistance associated protein 2 (human), sequence (Q92887 whole entry): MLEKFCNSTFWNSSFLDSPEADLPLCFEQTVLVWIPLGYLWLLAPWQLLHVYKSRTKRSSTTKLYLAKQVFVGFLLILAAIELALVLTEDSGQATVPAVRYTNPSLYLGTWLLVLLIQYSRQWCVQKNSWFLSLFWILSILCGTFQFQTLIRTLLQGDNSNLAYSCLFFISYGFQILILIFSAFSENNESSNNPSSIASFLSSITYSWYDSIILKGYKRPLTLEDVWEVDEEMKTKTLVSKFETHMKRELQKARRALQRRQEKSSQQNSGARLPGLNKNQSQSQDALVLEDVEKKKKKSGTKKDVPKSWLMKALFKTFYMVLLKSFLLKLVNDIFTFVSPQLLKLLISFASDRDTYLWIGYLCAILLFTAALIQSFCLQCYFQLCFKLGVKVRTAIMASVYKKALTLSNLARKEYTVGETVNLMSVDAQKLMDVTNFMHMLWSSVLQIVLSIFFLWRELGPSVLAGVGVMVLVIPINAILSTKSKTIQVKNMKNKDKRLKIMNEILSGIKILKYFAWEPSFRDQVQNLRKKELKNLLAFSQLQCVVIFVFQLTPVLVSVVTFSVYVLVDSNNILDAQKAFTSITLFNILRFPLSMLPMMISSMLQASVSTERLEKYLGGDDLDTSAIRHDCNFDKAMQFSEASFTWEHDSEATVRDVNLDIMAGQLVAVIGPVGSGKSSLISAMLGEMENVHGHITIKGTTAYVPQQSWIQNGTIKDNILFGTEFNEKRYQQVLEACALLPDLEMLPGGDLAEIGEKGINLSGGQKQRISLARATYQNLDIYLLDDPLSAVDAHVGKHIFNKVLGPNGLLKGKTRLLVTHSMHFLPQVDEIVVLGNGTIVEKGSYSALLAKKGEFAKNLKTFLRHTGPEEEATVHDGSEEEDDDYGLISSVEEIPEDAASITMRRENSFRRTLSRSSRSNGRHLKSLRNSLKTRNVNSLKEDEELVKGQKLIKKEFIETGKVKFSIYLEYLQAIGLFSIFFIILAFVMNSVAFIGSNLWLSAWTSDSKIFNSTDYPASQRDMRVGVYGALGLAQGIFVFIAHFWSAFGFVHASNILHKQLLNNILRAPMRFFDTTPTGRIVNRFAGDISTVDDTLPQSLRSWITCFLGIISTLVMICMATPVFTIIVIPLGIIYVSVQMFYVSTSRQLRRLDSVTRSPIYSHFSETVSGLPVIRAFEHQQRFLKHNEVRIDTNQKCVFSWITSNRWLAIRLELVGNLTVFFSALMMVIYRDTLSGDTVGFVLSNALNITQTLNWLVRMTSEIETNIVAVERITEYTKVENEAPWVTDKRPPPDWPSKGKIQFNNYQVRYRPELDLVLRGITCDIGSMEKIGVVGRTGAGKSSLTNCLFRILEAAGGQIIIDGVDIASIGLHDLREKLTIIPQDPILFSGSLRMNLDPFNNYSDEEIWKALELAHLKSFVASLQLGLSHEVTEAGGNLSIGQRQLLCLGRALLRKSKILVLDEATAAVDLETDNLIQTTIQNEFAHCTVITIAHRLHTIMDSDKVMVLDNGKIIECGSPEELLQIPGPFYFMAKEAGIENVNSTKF

In turn, “3-[D-Ala]-4-[(2S,3S)-4-(((S)-4-ethylmorpholin-2-yl)methoxy)-3-methyl-2-(methylamino)butanoyl]-cyclosporin (peptide)” had an NIM TDI kinact/Ki in the experiment with CYP3A4 of 0.0004. In experiment [1], this substance showed an OATP1B13 IC50 of 1.9 µM. “3-[D-Ala]-4-[(2S,3S)-3-methyl-2-(methylamino)-4-(2-morpholinoethoxy)butanoyl]-cyclosporin (peptide)”: in experiment [2], the MRP2 IC50 worked out at 23 µM. In experiment [1], this substance showed an OATP1B13 IC50 of 7.6 µM. “3-[D-Ala]-4-[(2S,3R)-4-methoxy-3-methyl-2-(methylamino)butanoyl]-cyclosporin (peptide)”: the NIM TDI kinact/Ki in the experiment with CYP3A4 was determined as 5 M⁻¹ s⁻¹. The substance further came in with an MRP2 IC50 in experiment [2] of 15 µM. In addition, in experiment [1], the OATP1B13 IC50 amounted to 1.9 µM. “3-[D-Ala]-4-[(2S,3R)-3-methyl-2-(methylamino)-4-morpholinobutanoyl]-cyclosporin (peptide)” came in with an MRP2 IC50 in experiment [2] of 18 µM. The same substance returned an OATP1B13 IC50 in experiment [1] of 8.2 µM. Substance “3-[D-Ala]-4-[(2S,3S)-3-methyl-2-(methylamino)-4-(methylsulfonyl)butanoyl]-cyclosporin (peptide)” displayed an MRP2 IC50 in experiment [2] of 9 µM. Besides, in experiment [1], the OATP1B13 IC50 was found to be 1.4 µM. With “3-[D-Ala]-4-[(2S,3R)-5-methoxy-3-methyl-2-(methylamino)pentanoyl]-cyclosporin (peptide)”, the MRP2 IC50 in experiment [2] stood at 13 µM. Moreover, the OATP1B13 IC50 in experiment [1] amounted to 2.3 µM. The like results for “3-[D-Ala]-4-[(2S,3S)-3-methyl-2-(methylamino)-4-((4-methylpiperazine-1-carbonyl)oxy)butanoyl]-cyclosporin (peptide)” were, in that order, 21 µM and 6.7 µM.

“3-[D-Ala]-4-[(2S,3S)-3-methyl-2-(methylamino)-4-(2-((4-methylpiperazine-1-carbonyl)oxy)ethoxy)butanoyl]-cyclosporin (peptide)”: the MRP2 IC50 in experiment [2] amounted to 30 µM. The same substance yielded an OATP1B13 IC50 in experiment [1] of 8.7 µM. The matching figures for “3-[D-Ala]-4-[(2S,3S)-4-(2-(1,1-dioxidothiomorpholino)ethoxy)-3-methyl-2-(methylamino)butanoyl]-cyclosporin (peptide)”: 28 µM and 3 µM.

For the substance “3-[D-Ala]-4-[(2S,3R)-3-methyl-2-(methylamino)-6-morpholinohexanoyl]-cyclosporin (peptide)”, in the experiment with CYP3A4, the NIM TDI kinact/Ki stood at 0.001. Also, in experiment [1], the OATP1B13 IC50 came to 6.9 µM.

As for “3-[D-Ala]-4-[(2S,3S)-4-methoxy-3-methyl-2-(methylamino)butanoyl]-cyclosporin (peptide)”, in experiment [2], the MRP2 IC50 worked out at 14 µM. The substance also showed an OATP1B13 IC50 in experiment [1] of 5.1 µM.

As for “3-[D-Ala]-4-[(2S,3S)-4-(2-hydroxy-2-methylpropoxy)-3-methyl-2-(methylamino)butanoyl]-cyclosporin (peptide)”, the NIM TDI kinact/Ki with CYP3A4 stood at 0.0015. The substance further displayed an OATP1B13 IC50 in experiment [1] of 1.8 µM. “3-[D-Ala]-4-[(2S,3R)-3-methyl-2-(methylamino)-4-(4-(methylsulfonyl)piperazin-1-yl)butanoyl]-cyclosporin (peptide)” yielded an MRP2 IC50 in experiment [2] of 13 µM. The OATP1B13 IC50 in experiment [1] is 4.8 µM.

The substance “3-[D-Ala]-4-[(2S,3R)-5-(4-cyclobutylpiperazin-1-yl)-3-methyl-2-(methylamino)pentanoyl]-cyclosporin (peptide)” yielded an OATP1B13 IC50 in experiment [1] of 2.1 µM. For “3-[D-Ala]-4-[(2S,3S)-4-(2-((S)-3-methoxypyrrolidin-1-yl)ethoxy)-3-methyl-2-(methylamino)butanoyl]-cyclosporin (peptide)”, the OATP1B13 IC50 in experiment [1] stood at 5 µM.

“3-[D-Ala]-4-[(2S,3S)-3-methyl-2-(methylamino)-4-(2-((S)-3-methylmorpholino)ethoxy)butanoyl]-cyclosporin (peptide)” yielded an OATP1B13 IC50 in experiment [1] of 4.8 µM. The same measure, in the same setting: the figure for “3-[D-Ala]-4-[(2S,3R)-3-methyl-2-(methylamino)-4-(4-(methylsulfonyl)piperidin-1-yl)butanoyl]-cyclosporin (peptide)” is 1.8 µM; for “3-[D-Ala]-4-[(2S,3R)-3-methyl-2-(methylamino)-5-morpholinopentanoyl]-cyclosporin (peptide)” it is 3.9 µM.

“3-[D-Ala]-4-[(2S,3S)-3-methyl-2-(methylamino)-4-(2-(4-methylpiperazin-1-yl)-2-oxoethoxy)butanoyl]-cyclosporin (peptide)”: the OATP1B13 IC50 in experiment [1] stood at 9.4 µM. On the same count and under the same terms, the figure for “3-[D-Ala]-4[(2S,3S)-2-Amino-3-methyl-4-(4-oxetan-3-yl-piperazin-1-yl)-butanoyl]-cyclosporin (peptide)” is 1.8 µM. “3-[D-Ala]-4-[(2S,3R)-3-methoxy-2-(methylamino)-4-morpholinobutanoyl]-cyclosporin (peptide)” returned an OATP1B13 IC50 in experiment [1] of 0.9 µM. On the same count and under the same terms, the figure for “3-[D-Ala]-4-[(2S,3R)-3-methyl-4-(methyl(pyridin-3-ylmethyl)amino)-2-(methylamino)butanoyl]-cyclosporin (peptide)” is 1 µM. Still for that read-out and setting: the figure for “3-[D-Ala]-4-[(2S,3S)-4-(((S)-4-isopropylmorpholin-2-yl)methoxy)-3-methyl-2-(methylamino)butanoyl]-cyclosporin (peptide)” is 4.3 µM. Same read-out and setting: the figure for “3-[D-Ala]-4-[(2S,3R)-4-(4-(ethoxycarbonyl)piperazin-1-yl)-3-methyl-2-(methylamino)butanoyl]-cyclosporin (peptide)” is 2.1 µM. In turn, “3-[D-Ala]-4-[(2S,3R)-3-methyl-2-(methylamino)-6-(((1-methylpiperidin-4-yl)carbamoyl)oxy)hexanoyl]-cyclosporin (peptide)” showed an OATP1B13 IC50 in experiment [1] of 7.8 µM. On the same count and under the same terms, the figure for “3-[(R)-5-hydroxy-2-(methylamino)pentanoyl]-4-[(2S,3S)-3-methyl-2-(methylamino)-4-(methylsulfonyl)butanoyl]-cyclosporin (peptide)” is 2.7 µM; for “3-[D-Ala]-4[(2S,3S)-2-Amino-4-(4-ethyl-piperazin-1-yl)-3-methyl-butanoyl]-cyclosporin (peptide)” it is 5.1 µM; for “3-[D-Ala]-4-[(2S,3R)-4-((2-(dimethylamino)-2-oxoethyl)(methyl)amino)-3-methyl-2-(methylamino)butanoyl]-cyclosporin (peptide)” it is 2.7 µM. Same read-out and setting: as for “3-[D-Ala]-4-[(2S,3R)-6-(8-oxa-3-azabicyclo[3.2.1]octan-3-yl)-3-methyl-2-(methylamino)-6-oxohexanoyl]-cyclosporin (peptide)”, the figure is 1.9 µM. Substance “3-[D-Ala]-4-[(2S,3R)-4-cyano-3-methyl-2-(methylamino)butanoyl]-cyclosporin (peptide)” registered an OATP1B13 IC50 in experiment [1] of 0.9 µM. Same read-out and setting: as for “3-[D-Ala]-4-[(S)-4-methoxy-3-(methoxymethyl)-2-(methylamino)butanoyl]-cyclosporin (peptide)”, the figure is 2.6 µM; as for “3-[D-Ala]-4-[(2S,3R)-6-(4-methoxypiperidin-1-yl)-3-methyl-2-(methylamino)hexanoyl]-cyclosporin (peptide)”, 4.3 µM. The same measure, in the same setting: the figure for “3-[D-Ala]-4[(2S,3S)-2-Amino-4-(4-cyclobutyl-piperazin-1-yl)-3-methyl-butanoyl]-cyclosporin (peptide)” is 4 µM; for “3-[D-Ala]-4[(2S,3R)-2-Amino-4-[4-(2-methoxy-ethyl)-piperazin-1-yl]-3-methyl-butanoyl]-cyclosporin (peptide)” it is 6.1 µM. In turn, “3-[D-Ala]-4-[(2S,3S)-4-(2-(4-cyclobutylpiperazin-1-yl)ethoxy)-3-methyl-2-(methylamino)butanoyl]-cyclosporin (peptide)” registered an NIM TDI kinact/Ki with CYP3A4 of 0.0007. In experiment [1], the OATP1B13 IC50 worked out at 3.5 µM.
